Measurements taken from publication PMC6008203.

Target: PtmA2 (as used for analytical size-exclusion chromatography) (Streptomyces platensis CB00739)
Assay: SEC

“PtmA2 (as used for analytical size-exclusion chromatography) (enzyme)” was tested, and the stoichiometry N was 2.
